The record followed here is patent US20260152573A1 (ARGENX, published 2026).

Residue numbers refer to the chain shown, from its start. Names and notes keep the numbering of the source. Where only a bound is given, the exact number is not on record here.

Sequences and labels used below:
B1: TA-Fc-ABDEG-2H11 (Fc fusion)
chain: GGGGSGGGGSGGGGSGGGGSELQVVESGGGLVQAGGSLRLSCAASGRTFRSNTMGWFRQAPGKEREFVAAITWSGGTTYYADSVKGRFAISGDNAKNTVYLQMNSLKPEDTAVYYCAAEGPKWEPWNGIYHPADFGSWGQGTQVTVSS
notes: also called 2H11 parental (two-armed Fc-ABDEG-20GS-Cterm fusion); not shown: Fc-ABDEG domain
B2: Alb23 D57A (VHH)
VHH: EVQLLESGGGLVQPGGSLRLSCAASGFTFRSFGMSWVRQAPGKGPEWVSSISGSGSATLYADSVKGRFTISRDNSKNTLYLQMNSLRPEDTAVYYCTIGGSLSRSSQGTLVTVSS
notes: VHH alone
B3: Alb23 V64A (VHH)
VHH: B2 VHH with A57D, V64A
notes: VHH alone
B4: Alb23 S56A (VHH)
VHH: B2 VHH with S56A, A57D
notes: VHH alone
B5: Alb23 T58A (VHH)
VHH: B2 VHH with A57D, T58A
notes: VHH alone
B6: Alb23 S31A (VHH)
VHH: B2 VHH with S31A, A57D
notes: VHH alone
B7: Alb23 D62A (VHH)
VHH: B2 VHH with A57D, D62A
notes: VHH alone
B8: Alb23 S50A (VHH)
VHH: B2 VHH with S50A, A57D
notes: VHH alone
B9: Alb23 S103A (VHH)
VHH: B2 VHH with A57D, S103A
notes: VHH alone
B10: Alb23 G66A (VHH)
VHH: B2 VHH with A57D, G66A
notes: VHH alone
B11: Alb23 S54A (VHH)
VHH: B2 VHH with S54A, A57D
notes: VHH alone
B12: Alb23 R104A (VHH)
VHH: B2 VHH with A57D, R104A
notes: VHH alone
B13: Alb23 K65A (VHH)
VHH: B2 VHH with A57D, K65A
notes: VHH alone
B14: Alb23 Y60A (VHH)
VHH: B2 VHH with A57D, Y60A
notes: VHH alone
B15: Alb23 I51A (VHH)
VHH: B2 VHH with I51A, A57D
notes: VHH alone
B16: Alb23 S35A (VHH)
VHH: B2 VHH with S35A, A57D
notes: VHH alone
B17: OA-Fc-ABDEG-Alb23-S101T (Fc fusion)
chain: DKTHTCPPCPAPELLGGPSVFLFPPKPKDTLYITREPEVTCVVVDVSHEDPEVKFNWYVDGVEVHNAKTKPREEQYNSTYRVVSVLTVLHQDWLNGKEYKCKVSNKALPAPIEKTISKAKGQPREPQVYTLPPSRDELTKNQVSLWCLVKGFYPSDIAVEWESNGQPENNYKTTPPVLDSDGSFFLYSKLTVDKSRWQQGNVFSCSVMHEALKFHYTQKSLSLSPGGGGGSGGGGSGGGGSGGGGSEVQLLESGGGLVQPGGSLRLSCAASGFTFRSFGMSWVRQAPGKGPEWVSSISGSGSDTLYADSVKGRFTISRDNSKNTLYLQMNSLRPEDTAVYYCTIGGTLSRSSQGTLVTVSS
Fc: DKTHTCPPCPAPELLGGPSVFLFPPKPKDTLYITREPEVTCVVVDVSHEDPEVKFNWYVDGVEVHNAKTKPREEQYNSTYRVVSVLTVLHQDWLNGKEYKCKVSNKALPAPIEKTISKAKGQPREPQVYTLPPSRDELTKNQVSLSCAVKGFYPSDIAVEWESNGQPENNYKTTPPVLDSDGSFFLVSKLTVDKSRWQQGNVFSCSVMHEALKFHYTQKSLSLSPG
B18: OA-Fc-ABDEG-Alb23-S52A/S101A (Fc fusion)
chain: B17 chain with S298A, T347A
Fc: B17 Fc
B19: OA-Fc-ABDEG-Alb23-G33A/G53A (Fc fusion)
chain: B17 chain with G279A, G299A, T347S
Fc: B17 Fc
B20: OA-Fc-ABDEG-Alb23-S52A (Fc fusion)
chain: B17 chain with S298A, T347S
Fc: B17 Fc
B21: OA-Fc-ABDEG-Alb23-S101A (Fc fusion)
chain: B17 chain with T347A
Fc: B17 Fc
B22: OA-Fc-ABDEG-Alb23-G53A (Fc fusion)
chain: B17 chain with G299A, T347S
Fc: B17 Fc
B23: OA-Fc-ABDEG-Alb23-S52A/G53A (Fc fusion)
chain: B17 chain with S298A, G299A, T347S
Fc: B17 Fc
B24: OA-Fc-ABDEG-Alb23-G33A (Fc fusion)
chain: B17 chain with G279A, T347S
Fc: B17 Fc
B25: OA-Fc-ABDEG-Alb23 (Fc fusion)
chain: B17 chain with T347S
Fc: B17 Fc
notes: also called one-armed Fc-ABDEG-Alb23; OA-Fc-ABDEG-Alb23 (parental)
B26: Alb23 F32A (VHH)
VHH: B2 VHH with F32A, A57D
notes: VHH alone

T4 sequence (P55899 24-365 limits assumed, chain 1 of 2): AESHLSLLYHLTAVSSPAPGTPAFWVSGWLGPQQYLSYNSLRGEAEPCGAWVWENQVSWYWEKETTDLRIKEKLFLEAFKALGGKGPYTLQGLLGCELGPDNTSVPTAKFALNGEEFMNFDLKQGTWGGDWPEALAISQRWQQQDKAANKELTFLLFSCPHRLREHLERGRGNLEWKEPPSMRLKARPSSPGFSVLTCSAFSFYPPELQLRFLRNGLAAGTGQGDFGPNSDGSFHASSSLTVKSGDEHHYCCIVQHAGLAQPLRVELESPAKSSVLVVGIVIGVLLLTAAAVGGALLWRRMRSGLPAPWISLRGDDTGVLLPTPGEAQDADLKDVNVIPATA
T4 sequence (P61769 21-119 limits assumed, chain 2 of 2): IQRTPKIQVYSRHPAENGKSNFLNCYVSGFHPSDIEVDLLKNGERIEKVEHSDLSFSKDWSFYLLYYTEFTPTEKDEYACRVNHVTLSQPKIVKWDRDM

The first assay concerns the target T1, human serum albumin (human, UniProt P02768 25-609).
T1 construct: Immobilised on SPR chips; also added in solution in the FcRn occupancy assays; also called HSA; humanSA
Put plainly: SPR Biacore 3000, HSA on chip, pH 7.4.
Turning to B1, the “R0 pH 7.4” value stood at 115 RU and the koff was 0.00072 s⁻¹.

In another assay the target is T2, cynomolgus monkey serum albumin (cynomolgus monkey, UniProt A2V9Z4 25-608).
T2 construct: Immobilised on SPR chips; also called cynoSA; cynomolgus albumin
Put plainly: SPR Biacore 8K+ SCK, albumin on chip, pH 7.4.
For the molecule B2, binding was characterised by a dissociation constant (Kd) of 6.25 nM.
Take B3: the Kd turned out to be 4.11 nM.
On the same count and under the same terms, as for B4, the figure is 3.65 nM; as for B5, 6.83 nM.
B6 showed a Kd of 3.74 nM.
Turning to B7, the Kd was determined as 3.48 nM.
Molecule B8 showed a Kd of 2.6 nM.
Turning to B9, the affinity, expressed as Kd, was 4.2 nM.
For B10, the affinity, expressed as Kd, was 5.84 nM.
The same measure, in the same setting: as for B11, the figure is 3.13 nM.
In turn, B12 gave a Kd of 4.92 nM.
Molecule B13 yielded a Kd of 3.18 nM.
Molecule B14 registered a Kd of 4.58 nM.
Same read-out and setting: as for B15, the figure is 5.53 nM; as for B16, 5.24 nM.

A further assay has as its target T3, mouse serum albumin (mouse, UniProt P07724 25-608).
T3 construct: Immobilised on SPR chips; also called mouseSA; MSA
Briefly: SPR Biacore 8K+ SCK, albumin on chip, pH 7.4.
B2 gave a Kd of 50.6 nM.
As to B3, the affinity, expressed as Kd, was 31.9 nM.
The same measure, in the same setting: as for B4, the figure is 37.7 nM; as for B5, 57.1 nM.
In the case of B6, the affinity, expressed as Kd, was 29.3 nM.
For the molecule B7, the Kd stood at 36.5 nM.
Consider B8, for which the Kd stood at 19 nM.
As to B9, the Kd was 38.2 nM.
Same read-out and setting: as for B10, the figure is 39.5 nM; as for B11, 25.6 nM.
With B12, the dissociation constant (Kd) is 49.7 nM.
For the molecule B13, the Kd is 52.3 nM.
For B14, binding was put at a Kd of 42.2 nM.
Take B15: binding was put at a Kd of 42.3 nM.
In turn, B16 returned a Kd of 37.6 nM.

In another assay the target is T1, human serum albumin. Briefly: SPR Biacore 8K+ SCK, albumin on chip, pH 7.4.
Take B2: binding was characterised by a dissociation constant (Kd) of 5.58 nM.
Take B3: the Kd worked out at 2.9 nM.
With B4, the affinity, expressed as Kd, was 3.33 nM.
Still for that read-out and setting: as for B5, the figure is 5.97 nM; as for B6, 3.36 nM.
B7 registered a Kd of 3.07 nM.
B8 gave a Kd of 2.33 nM.
The same measure, in the same setting: as for B9, the figure is 3.85 nM; as for B10, 3.97 nM.
Take B11: binding was put at a Kd of 2.81 nM.
The molecule B12 registered a Kd of 4.58 nM.
With B13, the Kd was 5.36 nM.
Regarding B14, binding was put at a Kd of 4.28 nM.
In turn, B15 registered a Kd of 5.17 nM.
Still for that read-out and setting: as for B16, the figure is 4.95 nM.

For the next assay, the target named is T1, human serum albumin. Put plainly: SPR Biacore, HSA coated, steady state, pH 7.4.
B17: binding was put at a Kd of 315 nM.
Molecule B18 displayed a Kd of 579 nM.
Still for that read-out and setting: as for B19, the figure is 767 nM; as for B20, 27.3 nM; as for B21, 353 nM.
For B22, the Kd worked out at 158 nM.
B23 displayed a Kd of 298 nM.
Same read-out and setting: as for B24, the figure is 863 nM.

A further assay has as its target T1, human serum albumin. Briefly: SPR Biacore, HSA coated, kinetic fit, pH 5.5.
B25 showed a Kd of 16.6 nM.
For B17, the Kd was determined as 54.9 nM.
Molecule B18 showed a Kd of 95.6 nM.
In turn, B19 yielded a Kd of 90.2 nM.
The same measure, in the same setting: as for B20, the figure is 34.2 nM; as for B21, 54.3 nM.
B22: the equilibrium dissociation constant (Kd) was found to be 20.6 nM.
In the case of B23, binding was put at a Kd of 47.7 nM.
With B24, binding was characterised by a dissociation constant (Kd) of 124 nM.

For a further assay, the target named is T1, human serum albumin. Briefly: SPR Biacore 3000, HSA on chip, pH 5.5.
For B1, the “R0 pH 5.5” value is 351 RU and the koff is 0.00016 s⁻¹.

The target in the next assay is T1, human serum albumin. Put plainly: SPR Biacore 8K+ SCK, albumin on chip, pH 7.4. The source holds these as a separate data set.
Regarding B26, the “fold decrease in affinity compared to the parental Alb23 VHH fragment” value was at least 10 fold.

A further assay concerns the target T4, neonatal Fc receptor (FcRn), endogenous in U937 cells (human, UniProt P55899 24-365; P61769 21-119).
T4 construct: whole, on cells; Free FcRn was stained intracellularly after fixation and permeabilisation
Briefly: FcRn occupancy, FACS, U937 cells, with albumin.
Experimental: Next, FcRn occupancy was tested using a cell-based FcRn occupancy assay in the presence or absence of albumin. […] Cells (HEK FcRn mut or U937) were plated in a 96-well microplate. Cells were incubated with test article for two hours, shaking at 37° C., pH 7.4 in FACS buffer. Plates were then transferred immediately on ice and cells were collected by centrifugation at 4° C. Cells stained for viability in FACS buffer at pH 6 and then fixed/permeabilized in permeabilization buffer at pH 6. […] Cells were analyzed by FACS, ensuring that they are kept on ice until immediately prior to analysis.
As for B25, the “% max occupancy” value turned out to be 67.4% and half-maximal inhibition (IC50) required 5.2 nM.

In the next assay the target is T1, human serum albumin. Briefly: SPR Biacore, HSA coated, kinetic fit, pH 7.4.
B17 returned a Kd of 206 nM.
B18 came in with a Kd of 501 nM.
As for B19, the Kd was 499 nM.
As to B20, the Kd is 167 nM.
In the case of B21, the Kd turned out to be 255 nM.
With B22, the affinity, expressed as Kd, was 78.8 nM.
As to B23, the Kd was determined as 204 nM.
For the molecule B24, the Kd stood at 150 nM.

In another assay the target is T1, human serum albumin. Put plainly: SPR Biacore, HSA coated, steady state, pH 5.5.
For B25, the affinity, expressed as Kd, was 32.7 nM.
For B17, the Kd was found to be 70.8 nM.
Same read-out and setting: as for B18, the figure is 124 nM; as for B19, 135 nM.
For the molecule B20, binding was put at a Kd of 49.5 nM.
On to B21, for which the Kd worked out at 67.5 nM.
For the molecule B22, the Kd is 36.7 nM.
On to B23, for which the Kd amounted to 65.9 nM.
The molecule B24 had a Kd of 145 nM.

The target of a further assay is T1, human serum albumin. Put plainly: SPR Biacore 3000, HSA on chip, ratio of R0 at pH 5.5 and pH 7.4.
Take B1: the “R0 5.5/7.4” value worked out at 3.
